Source: PMC10945584, “Dual recognition of multiple signals in bacterial outer membrane proteins enhances assembly and maintains membrane integrity” (eLife, 2024)
Several values for one entry are separate records, joined by “and”; a condition that tells them apart may be missing. Equal entries are not always repeated.

Experiments:
[1] = biological target: the molecule itself; assay: native gel or EMSA; 35S-labeled substrate incubated with E. coli microsomal membranes (EMM) at 30 °C, membranes solubilised in 1.5% DDM, BN-PAGE and radio-imaging
[2] = biological target: the molecule itself; assay: native gel or EMSA; EMM from E. coli strains solubilised with 1.5% DDM, BN-PAGE and immunoblotting
[3] = biological target: the molecule itself; assay: SDS-PAGE of unboiled samples after folding into detergent micelles; 5 μM urea-denatured OmpC in 10 mM phosphate pH 8.0, 2 mM EDTA, 1 mM glycine, 3.4 mM DDM, 37 °C up to 36 h; samples boiled or kept at room temperature

Protein	stoichiometry N [1]	also measured
35S-labeled OmpC(Y286A), in vitro translated (natural protein, Escherichia coli, UniProt P06996 1-367, looked up, 35S-methionine label, OmpC, E. coli; also called internal signal mutant; source: in vitro translated (rabbit reticulocyte lysate, 35S-methionine)) MKVKVLSLLVPALLVAGAANAAEVYNKDGNKLDLYGKVDGLHYFSDNKDVDGDQTYMRLGFKGETQVTDQLTGYGQWEYQIQGNSAENENNSWTRVAFAGLKFQDVGSFDYGRNYGVVYDVTSWTDVLPEFGGDTYGSDNFMQQRGNGFATYRNTDFFGLVDGLNFAVQYQGKNGNPSGEGFTSGVTNNGRDALRQNGDGVGGSITYDYEGFGIGGAISSSKRTDAQNTAAYIGNGDRAETYTGGLKYDANNIYLAAQYTQTYNATRVGSLGWANKAQNFEAVAQAQFDFGLRPSLAYLQSKGKNLGRGYDDEDILKYVDVGATYYFNKNMSTYVDYKINLLDDNQFTRDAGINTDNIVALGLVYQF	3	–
35S-labeled OmpC, in vitro translated (natural protein, Escherichia coli, UniProt P06996 1-367, looked up, 35S-methionine label, OmpC, E. coli; also called 35S-OmpC; OmpC(WT); source: in vitro translated (rabbit reticulocyte lysate, 35S-methionine)) MKVKVLSLLVPALLVAGAANAAEVYNKDGNKLDLYGKVDGLHYFSDNKDVDGDQTYMRLGFKGETQVTDQLTGYGQWEYQIQGNSAENENNSWTRVAFAGLKFQDVGSFDYGRNYGVVYDVTSWTDVLPEFGGDTYGSDNFMQQRGNGFATYRNTDFFGLVDGLNFAVQYQGKNGNPSGEGFTSGVTNNGRDALRQNGDGVGGSITYDYEGFGIGGAISSSKRTDAQNTAAYIGNGDRAETYTGGLKYDANNIYLAAQYTQTYNATRVGSLGWANKAQNFEAVAQYQFDFGLRPSLAYLQSKGKNLGRGYDDEDILKYVDVGATYYFNKNMSTYVDYKINLLDDNQFTRDAGINTDNIVALGLVYQF	3	–
FLAG-OmpC expressed in E. coli (natural protein, Escherichia coli, UniProt P06996 22-367, looked up, OmpC, E. coli; Two plasmid names are printed for FLAG-OmpC; also called FLAG-OmpC(WT); FLAG-tagged form of OmpC; not shown: FLAG, N-terminal, kept) AEVYNKDGNKLDLYGKVDGLHYFSDNKDVDGDQTYMRLGFKGETQVTDQLTGYGQWEYQIQGNSAENENNSWTRVAFAGLKFQDVGSFDYGRNYGVVYDVTSWTDVLPEFGGDTYGSDNFMQQRGNGFATYRNTDFFGLVDGLNFAVQYQGKNGNPSGEGFTSGVTNNGRDALRQNGDGVGGSITYDYEGFGIGGAISSSKRTDAQNTAAYIGNGDRAETYTGGLKYDANNIYLAAQYTQTYNATRVGSLGWANKAQNFEAVAQYQFDFGLRPSLAYLQSKGKNLGRGYDDEDILKYVDVGATYYFNKNMSTYVDYKINLLDDNQFTRDAGINTDNIVALGLVYQF	–	stoichiometry N [2]: 2 and 3
OmpC, His6-tagged, purified, urea-denatured (natural protein, Escherichia coli, UniProt P06996 22-367, looked up, OmpC, E. coli; also called OmpC(WT); native OmpC protein; source: E. coli BL21(DE3)*, inclusion bodies, purified in 6 M urea (Ni-NTA)) AEVYNKDGNKLDLYGKVDGLHYFSDNKDVDGDQTYMRLGFKGETQVTDQLTGYGQWEYQIQGNSAENENNSWTRVAFAGLKFQDVGSFDYGRNYGVVYDVTSWTDVLPEFGGDTYGSDNFMQQRGNGFATYRNTDFFGLVDGLNFAVQYQGKNGNPSGEGFTSGVTNNGRDALRQNGDGVGGSITYDYEGFGIGGAISSSKRTDAQNTAAYIGNGDRAETYTGGLKYDANNIYLAAQYTQTYNATRVGSLGWANKAQNFEAVAQYQFDFGLRPSLAYLQSKGKNLGRGYDDEDILKYVDVGATYYFNKNMSTYVDYKINLLDDNQFTRDAGINTDNIVALGLVYQF	–	stoichiometry N [3]: 3 and 2
35S-labeled OmpF, in vitro translated (natural protein, Escherichia coli, UniProt P02931 1-362, looked up, 35S-methionine label, OmpF, E. coli; source: in vitro translated (rabbit reticulocyte lysate, 35S-methionine)) MMKRNILAVIVPALLVAGTANAAEIYNKDGNKVDLYGKAVGLHYFSKGNGENSYGGNGDMTYARLGFKGETQINSDLTGYGQWEYNFQGNNSEGADAQTGNKTRLAFAGLKYADVGSFDYGRNYGVVYDALGYTDMLPEFGGDTAYSDDFFVGRVGGVATYRNSNFFGLVDGLNFAVQYLGKNERDTARRSNGDGVGGSISYEYEGFGIVGAYGAADRTNLQEAQPLGNGKKAEQWATGLKYDANNIYLAANYGETRNATPITNKFTNTSGFANKTQDVLLVAQYQFDFGLRPSIAYTKSKAKDVEGIGDVDLVNYFEVGATYYFNKNMSTYVDYIINQIDSDNKLGVGSDDTVAVGIVYQF	3	–
35S-labeled LamB, in vitro translated (natural protein, Escherichia coli, UniProt P02943 1-446, looked up, 35S-methionine label, LamB (maltoporin), E. coli; also called maltoporin; source: in vitro translated (rabbit reticulocyte lysate, 35S-methionine)) MMITLRKLPLAVAVAAGVMSAQAMAVDFHGYARSGIGWTGSGGEQQCFQTTGAQSKYRLGNECETYAELKLGQEVWKEGDKSFYFDTNVAYSVAQQNDWEATDPAFREANVQGKNLIEWLPGSTIWAGKRFYQRHDVHMIDFYYWDISGPGAGLENIDVGFGKLSLAATRSSEAGGSSSFASNNIYDYTNETANDVFDVRLAQMEINPGGTLELGVDYGRANLRDNYRLVDGASKDGWLFTAEHTQSVLKGFNKFVVQYATDSMTSQGKGLSQGSGVAFDNEKFAYNINNNGHMLRILDHGAISMGDNWDMMYVGMYQDINWDNDNGTKWWTVGIRPMYKWTPIMSTVMEIGYDNVESQRTGDKNNQYKITLAQQWQAGDSIWSRPAIRVFATYAKWDEKWGYDYTGNADNNANFGKAVPADFNGGSFGRGDSDEWTFGAQMEIWW	3	–
OmpF, endogenous (natural protein, Escherichia coli (endogenous), UniProt P02931 23-362, looked up, OmpF, E. coli; also called endogenous OmpF; trimeric OmpF; source: endogenous, E. coli membrane fractions (EMM)) AEIYNKDGNKVDLYGKAVGLHYFSKGNGENSYGGNGDMTYARLGFKGETQINSDLTGYGQWEYNFQGNNSEGADAQTGNKTRLAFAGLKYADVGSFDYGRNYGVVYDALGYTDMLPEFGGDTAYSDDFFVGRVGGVATYRNSNFFGLVDGLNFAVQYLGKNERDTARRSNGDGVGGSISYEYEGFGIVGAYGAADRTNLQEAQPLGNGKKAEQWATGLKYDANNIYLAANYGETRNATPITNKFTNTSGFANKTQDVLLVAQYQFDFGLRPSIAYTKSKAKDVEGIGDVDLVNYFEVGATYYFNKNMSTYVDYIINQIDSDNKLGVGSDDTVAVGIVYQF	–	stoichiometry N [2]: 3 and 2
